Patent US20050222039A1, “Animal treatment” (priority 2001, published 2005)

Tests used:
[1] = system: Romney ewes; assay: Trial 2: bromocriptine treatment of winter-lambing Romney ewes (plasma prolactin, wool growth, lambs); type: in vivo, sheep; conditions: bromocriptine given to pregnant ewes before or after parturition
Experimental: Natural and experimental changes in plasma prolactin concentration and their effects on wool production in winter-lambing Romney ewes were measured.
Fourteen non-pregnant and 29 pregnant ewes were maintained indoors from early April 1995 for 12 months under controlled photoperiod and controlled dietary intake. Two groups (n=8) were held under long day photoperiod (16L:8D; LD non-pregnant and LD-lambed) while 2 others were exposed to natural photoperiod (ND non-pregnant, n=6 and ND-lambed, n=7). Two further groups (n=7) of pregnant ewes housed in natural days were treated with bromocriptine, either from 1 week before parturition (ND-BrB) or 1-3 days after parturition (ND-BrA), to suppress prolactin secretion.
Lambing occurred between 12 and 18 June. Plasma prolactin, mean fibre diameter and wool growth were measured at regular intervals and the results were plotted in FIG. 3.

[2] = system: Romney ewes; type: in vivo, sheep
Text: The effects of two methods of administration of exogenous prolactin on wool growth were examined.
Forty-three mixed age Romney ewes were maintained indoors in individual pens from April until October, and fed to maintain a constant maternal live weight (independent of conceptus and fleece weights). A control group (ND non-pregnant) was not mated (n=8). Thirty-five other ewes (comprising Groups 2-5) were mated in April. Groups 1-4 were maintained in natural photoperiod while Group 5 (LD-lambed, n=10) was subjected to long days (16L:8D) from 1 week after mating for the duration of the trial (ie 18 days).
An ovine prolactin pituitary extract (0.80 mg/kg/day) was administered by either daily subcutaneous injection to sheep of Group 3 (PRL-INJ, n=10) or by intravenous infusion via a jugular cannula to sheep of Group 4 (PRL-INF, n=2) (from one week after mating for a temporary period of 18 days).
(§1) The sheep were shorn on entry to the experiment and again at the conclusion of the experiment in late September and a mid-side wool sample was measured for fibre diameter and yield. Wool samples were clipped from a standardised 100×100 mm mid-side patch on the right side of each ewe at monthly intervals to determine changes in seasonal clean wool production and mean fibre diameter. Wool growth and plasma prolactin concentrations were measured at regular intervals and the results were plotted in FIGS. 4 and 5.

[3] = system: prolactin receptor long form gene expression; assay: Trial 5: skin prolactin receptor long form gene expression by real-time PCR; type: in vivo, sheep
Experimental: (§2) The relative expression of prolactin receptor mRNA was measured using Taqman real-time PCR (Applied Biosystems). RNA was extracted from skin samples using TRIzol reagent according to manufactures protocol (Invitrogen). Total RNA was then quantified using RiboGreen reagent (Invitrogen) and all samples were standardized to a concentration of 0.5 μg/μl of total RNA. The reverse transcriptase reaction (Superscript II RT-PCR kit, Invitrogen) was used to generate single stranded cDNA from 0.5 μg of total RNA.
(§3) Twenty-one, mixed age, non-pregnant Romney ewes were maintained indoors in individual pens from September 2001 until February 2002. The ewes were fed to maintain a constant live weight. They were divided into 3 groups: short day controls (n=7), short day prolactin infused (n=7) and normal day controls (n=7). An ovine prolactin pituitary extract (1.0 mg/kg/day) was administered to each ewe in the short day infused group by intravenous infusion via a jugular cannula commencing on 9 October for 9 days. A second 9-day prolactin infusion was administered to the same ewes commencing on 20 November, 33 days after the end of the first infusion.
Plasma prolactin concentrations were measured at regular intervals and ten midside skin biopsies were collected at intervals between October and December 2001 for measurement of prolactin receptor long form gene expression by real-time PCR. […]

[4] = system: prolactin receptor gene expression; assay: Trial 8: prolactin receptor gene expression in mice mammary gland; type: in vivo; conditions: 3-day infused group, days 7 and 14, P<0.05
Experimental: Swiss female mice were maintained in cages at a constant temperature of 22 C., under a photoperiod regime of 14 hours light: 10 hours dark, fed a diet of formulated mouse pellets ad libitum with access to fresh tap water. At 21 days of age, subcutaneous implants releasing 250 μg/day of bromocriptine over 60 days (Cat. Number SC-231; Innovative Research of America Inc.) were inserted under anaesthetic. At the same time, the mice received a slow release 100 μl osmotic pump (Alzet Model 1007D; Alza Corporation, Palo Alto, Calif.) delivering ovine prolactin (400 μg/day) for either 3 or 7 days. Mice were sacrificed in groups of 3 at intervals before, during and after prolactin administration. They were anaesthetised using CO2 and blood sampled by heart puncture, prior to euthanasia by cervical dislocation. The blood was centrifuged and the plasma stored at −20 C. by radioimmunoassay for ovine prolactin. The mammary glands were dissected from each mouse and snap frozen in liquid nitrogen prior to assay by real-time PCR for prolactin receptor gene expression. The results are plotted in FIG. 13.

[5] = system: rabbits; conditions: bromocriptine-treated rabbits, single injection of 3 mg of prolactin; cited from earlier work
[6] = system: prolactin receptor long form gene expression; assay: Trial 3: skin prolactin receptor long form gene expression by real-time PCR; type: in vivo, sheep
Experimental: Six midside skin biopsies were collected at intervals between April and June for measurement of prolactin receptor long form gene expression by real-time PCR and the results are plotted in FIG. 6. An assay for the short form of the ovine prolactin receptor was also developed, but results are not presented since only very low levels of expression were detected.
as §2
(§4) The primers and probes for the long form of the prolactin receptor were designed using the Primer Express program (Applied Biosystems).
(§5) The 18S ribosomal RNA pre-developed assay reagent (Applied Biosystems) was used as an internal control and the reactions were set up according to the manufacturers instructions. Data was analysed using the software provided by Applied Biosystems. Results on relative mRNA quantities were obtained by the standard curve method.

[7] = system: Romney ewes; assay: Trial 4: 3-, 9- or 18-day prolactin infusion, wool growth in pregnant Romney ewes; type: in vivo, sheep; conditions: for mean total patch weight (clean wool): 12-month trial
Experimental: Trial 4 was conducted to compare different periods of exogenous prolactin administration on wool growth.
Eighteen 3 year old Romney ewes were maintained indoors in individual pens under natural photoperiod for 12 months from March 2000. […] The ewes were fed to maintain a constant maternal live weight (independent of conceptus and fleece weights). A control group (ND non-pregnant) was not mated (n=6). Twelve other ewes (comprising Groups 2-4) were mated on 23 April.
An ovine prolactin pituitary extract (1.0 mg/kg/day) was administered by intravenous infusion via a jugular cannula commencing 11 days after mating (4 May) for temporary periods of either 3 days (Group 2, n=6), 9 days (Group 3, n=3) or 18 days (Group 4, n=3).
as §1, with “March 2001” for “late September”, “concentration” for “concentrations”, “7” for “4”, “8.” for “5.”

[8] = system: sheep; conditions: sheep held in darkness, infusion of prolactin; cited from earlier work
[9] = Trial 5: plasma prolactin after two 9-day prolactin infusions in non-pregnant Romney ewes; type: in vivo, sheep; conditions: intravenous 1.0 mg/kg/day for 9 days
Experimental: as §3
Plasma prolactin concentrations were measured at regular intervals and ten midside skin biopsies were collected at intervals between October and December 2001 for measurement of prolactin receptor long form gene expression by real-time PCR. The results are plotted in FIG. 10.

[10] = system: prolactin receptor; conditions: cited from earlier work
[11] = system: prolactin receptor long form gene expression; assay: Trial 4: skin prolactin receptor long form gene expression by real-time PCR; type: in vivo, sheep
Experimental: as §2, §4, §5
Six midside skin biopsies were collected at intervals between April and June for measurement of prolactin receptor long form gene expression by real-time PCR and the results are plotted in FIG. 9.

[12] = system: prolactin receptor gene expression; assay: Trial 6: skin prolactin receptor gene expression in Romney or Wiltshire ewes; type: in vivo, sheep; conditions: Wiltshire ewes treated in April, P<0.05
Experimental: (§6) Four groups, each comprised of seven 1-2 year old Romney or Wiltshire ewes were shorn and maintained indoors in individual pens from March until November 2002. The animals were fed to maintain a constant maternal live weight (independent of conceptus and fleece weights). The ewes were mated in March, and maintained in short days (8L:16D). Half of the ewes were cannulated and infusions of prolactin (40 mg/day) for 9 days commenced one week after mating. Blood samples and skin biopsies were collected from all ewes at intervals to monitor plasma prolactin and skin prolactin receptor gene expression respectively. The results are plotted in FIG. 11.

[13] = Trial 6: plasma prolactin after 9-day prolactin infusion in pregnant Romney or Wiltshire ewes; type: in vivo, sheep; conditions: infusion 40 mg/day for 9 days, pregnant ewes in short days
Experimental: as §6

[14] = system: cows; conditions: infusions of exogenous bovine prolactin; cited from earlier work
[15] = model parameter from literature

## CC(C)C[C@H]1C(=O)N2CCC[C@H]2[C@]2(O)O[C@](NC(=O)[C@@H]3C=C4c5cccc6[nH]c(Br)c(c56)C[C@H]4N(C)C3)(C(C)C)C(=O)N12 [bromocriptine]
[1]
  birth weight or live weight changes of lambs: did not affect

B1: prolactin: ovine prolactin pituitary extract; peptide hormone of approximately 200 amino acids, given by infusion, injection or osmotic pump (protein, UniProt P01240 31-229, looked up)
Prolactin: TPVCPNGPGNCQVSLRDLFDRAVMVSHYIHNLSSEMFNEFDKRYAQGKGFITMALNSCHTSSLPTPEDKEQAQQTHHEVLMSLILGLLRSWNDPLYHLVTEVRGMKGVPDAILSRAIEIEEENKRLLEGMEMIFGQVIPGAKETEPYPVWSGLPSLQTKDEDARHSAFYNLLHCLRRDSSKIDTYLKLLNCRIIYNNNC
modifications: pituitary extract
[2]; PRL-INF, 6-month trial, ND-lambed controls 1.23 kg, SEM ±0.13 kg, P<0.01
  mean clean fleece weight: 1.63 kg
[2]; PRL-INF, by September, P=0.05
  increase in mean fibre diameter: 2 μm
[2]; PRL-INF, intravenous infusion 18 days, n=2, May and throughout pregnancy
  decline in clean wool growth rate: arrested in May and remained high
[2]; PRL-INF, intravenous infusion, P<0.001
  September clean wool growth rate relative to untreated ND-lambed ewes: approximately twice
[2]; PRL-INJ, P<0.10
  mean fibre diameter relative to ND-lambed controls: appeared to be lower
[2]; PRL-INJ, daily subcutaneous injection, P<0.05
  September clean wool growth vs untreated ND-lambed ewes: lower
[2]; daily subcutaneous injections 0.8 mg/kg/day (PRL-INJ)
  decline in clean wool growth rate compared to pregnant controls: no initial effect
[3]; first 9-day infusion, P<0.01
  prolactin receptor gene expression: elevated
[3]; second 9-day infusion, P<0.02
  prolactin receptor gene expression: elevated
[4]
  prolactin receptor gene expression vs control group and 7-day infused group: elevated
[5]
  recovery in milk yield: accelerated
[6]; PRL-INJ (injected) among remaining groups, over the trial
  prolactin receptor gene expression, differences between remaining treatment groups: no significant differences
[6]; infused ewes, April to June, P<0.05
  duration of high level of receptor expression vs untreated ewes: sustained for two months
[6]; infused ewes, during and after the 18 day infusion, P<0.01
  prolactin receptor gene expression compared to other treatment groups: significantly elevated
[7]; 3-day infusion
  mean total patch weight (clean wool): 0.74 g
[7]; 9-day infusion 1.0 mg/kg/day, during May
  clean patch wool growth vs 3-day and 18-day infused groups: higher wool growth
[7]; 9-day infusion
  mean total patch weight (clean wool): 0.91 g
[7]; 9-day infusion, July
  mean fibre diameter difference vs other infused groups: approximately 3 μm
[7]; 9-day infusion, July, P<0.01, persisted until November
  wool growth rate vs other infused groups: higher than either of the other infused groups
[7]; 9-day infusion, June, P<0.01
  mean fibre diameter vs 3-day infused group: significantly higher
[7]; 18-day infusion
  mean total patch weight (clean wool): 0.66 g
[8]
  nitrogen retention: increases
[9]
  plasma prolactin levels on termination of the infusions: fell rapidly to baselines levels
[9]; short day ewes
  plasma prolactin levels during infusion: approximately 500 ng/ml
[10]; model parameter from literature [Gertler et al., 1996]
  α, rate of formation of dimer complex: 48000 M⁻¹ s⁻¹
[10]; [15]
  d12, dissociation rate of hormone-receptor complex: 4717.4 day⁻¹
  d, dissociation rate of hormone-receptor complex: 12.96 day⁻¹
  α1, rate of formation of trimer complex: 35000 M⁻¹ s⁻¹
  γ, clearance rate constant of plasma prolactin: 35.6 day⁻¹
[11]; 3-day infusion group
  prolactin receptor gene expression following commencement of infusions: all groups except the 3-day group
[11]; 9-day and 18-day infusion groups
  prolactin receptor gene expression following commencement of infusions: dropped significantly
[11]; all infused groups, not statistically significant
  prolactin receptor gene expression following termination of infusions: rose
[12]
  prolactin receptor gene expression in September vs non-treated Wiltshire ewes: increase
[13]
  plasma prolactin levels during prolactin administration: approximately 500 ng/ml

B2: bovine prolactin: exogenous bovine prolactin infused in cows (literature) (protein, UniProt P01239 31-229, looked up)
Prolactin: TPVCPNGPGNCQVSLRDLFDRAVMVSHYIHDLSSEMFNEFDKRYAQGKGFITMALNSCHTSSLPTPEDKEQAQQTHHEVLMSLILGLLRSWNDPLYHLVTEVRGMKGAPDAILSRAIEIEEENKRLLEGMEMIFGQVIPGAKETEPYPVWSGLPSLQTKDEDARYSAFYNLLHCLRRDSSKIDTYLKLLNCRIIYNNNC
[14]
  bromocriptine-induced reductions in milk yield: can prevent
